# Results published in paper PMC11094772.
# Like-named read-outs stand apart in the source and are kept apart here.
# What was measured:
# Test in all cases: BLI
# [1] = molecular target: KRAS4B (residues 1-185, C118S) tethered to nanodiscs (UniProt P01116)
# [2] = molecular target: KRAS4B (residues 1-185, C118S) tethered to nanodiscs (UniProt P01116); remark: listed apart in the source
# [3] = molecular target: KRAS4B (residues 1-185, C118S) tethered to nanodiscs (UniProt P01116); remark: listed apart in the source
# [4] = molecular target: KRAS4B (residues 1-185, C118S) tethered to nanodiscs (UniProt P01116); remark: listed apart in the source
Kd [1],koff [1],kon [1],Kd [2],koff [2],kon [2],Kd [3],koff [3],kon [3],Kd [4],koff [4],kon [4],Substance
18.5 nM,0.00185 s⁻¹,105000 M⁻¹ s⁻¹,29.1 nM,0.0034 s⁻¹,106000 M⁻¹ s⁻¹,57.4 nM,0.00395 s⁻¹,69000 M⁻¹ s⁻¹,28.6 nM,0.00269 s⁻¹,94100 M⁻¹ s⁻¹,D-BRAF: dimeric MBP-BRAF(S365A):14-3-3 complex (2 MBP-BRAF: 2 14-3-3) (from UniProt P15056 1-766)
68.2 nM,0.0016 s⁻¹,24000 M⁻¹ s⁻¹,65.5 nM,0.00266 s⁻¹,44200 M⁻¹ s⁻¹,177 nM,0.00372 s⁻¹,21100 M⁻¹ s⁻¹,93.3 nM,0.00235 s⁻¹,25400 M⁻¹ s⁻¹,M-BRAF: monomeric MBP-BRAF(WT):14-3-3 complex (1 MBP-BRAF: 2 14-3-3) (from UniProt P15056 1-766)
–,–,–,–,–,–,25.5 nM,–,–,–,–,–,tagless dimeric BRAF(S365A):14-3-3 complex (MBP removed by TEV protease) (from UniProt P15056 1-766)
–,–,–,–,–,–,35.5 nM,–,–,–,–,–,tagless monomeric BRAF(WT):14-3-3 complex (MBP removed by TEV protease) (from UniProt P15056 1-766)
